Assay results as given in PMC8379176 (Nature Communications, 2021).

B1: WT (protein, UniProt Q92847 1-366, looked up)
Growth hormone secretagogue …: MWNATPSEEPGFNLTLADLDWDASPGNDSLGDELLQLFPAPLLAGVTATCVALFVVGIAGNLLTMLVVSRFRELRTTTNLYLSSMAFSDLLIFLCMPLDLVRLWQYRPWNFGDLLCKLFQFVSESCTYATVLTITALSVERYFAICFPLRAKVVVTKGRVKLVIFVIWAVAFCSAGPIFVLVGVEHENGTDPWDTNECRPTEFAVRSGLLTVMVWVSSIFFFLPVFCLTVLYSLIGRKLWRRRRGDAVVGASLRDQNHKQTVKMLAVVVFAFILCWLPFHVGRYLFSKSFEPGSLEIAQISQYCNLVSFVLFYLSAAINPILYNIMSKKYRVAVFRLLGFEPFSQRKLSTLKDESSRAWTESSINT
B2: R1022.63A (protein)
chain: MWNATPSEEPGFNLTLADLDWDASPGNDSLGDELLQLFPAPLLAGVTATCVALFVVGIAGNLLTMLVVSRFRELRTTTNLYLSSMAFSDLLIFLCMPLDLVALWQYRPWNFGDLLCKLFQFVSESCTYATVLTITALSVERYFAICFPLRAKVVVTKGRVKLVIFVIWAVAFCSAGPIFVLVGVEHENGTDPWDTNECRPTEFAVRSGLLTVMVWVSSIFFFLPVFCLTVLYSLIGRKLWRRRRGDAVVGASLRDQNHKQTVKMLAVVVFAFILCWLPFHVGRYLFSKSFEPGSLEIAQISQYCNLVSFVLFYLSAAINPILYNIMSKKYRVAVFRLLGFEPFSQRKLSTLKDESSRAWTESSINT
modifications: SNAP tag labelled with SNAP-Lumi4-Tb; left off: SNAP, N-terminal, kept
B3: E1243.33A (protein)
chain: MWNATPSEEPGFNLTLADLDWDASPGNDSLGDELLQLFPAPLLAGVTATCVALFVVGIAGNLLTMLVVSRFRELRTTTNLYLSSMAFSDLLIFLCMPLDLVRLWQYRPWNFGDLLCKLFQFVSASCTYATVLTITALSVERYFAICFPLRAKVVVTKGRVKLVIFVIWAVAFCSAGPIFVLVGVEHENGTDPWDTNECRPTEFAVRSGLLTVMVWVSSIFFFLPVFCLTVLYSLIGRKLWRRRRGDAVVGASLRDQNHKQTVKMLAVVVFAFILCWLPFHVGRYLFSKSFEPGSLEIAQISQYCNLVSFVLFYLSAAINPILYNIMSKKYRVAVFRLLGFEPFSQRKLSTLKDESSRAWTESSINT
modifications: SNAP tag labelled with SNAP-Lumi4-Tb; left off: SNAP, N-terminal, kept
B4: E197ECL2A (protein)
chain: MWNATPSEEPGFNLTLADLDWDASPGNDSLGDELLQLFPAPLLAGVTATCVALFVVGIAGNLLTMLVVSRFRELRTTTNLYLSSMAFSDLLIFLCMPLDLVRLWQYRPWNFGDLLCKLFQFVSESCTYATVLTITALSVERYFAICFPLRAKVVVTKGRVKLVIFVIWAVAFCSAGPIFVLVGVEHENGTDPWDTNACRPTEFAVRSGLLTVMVWVSSIFFFLPVFCLTVLYSLIGRKLWRRRRGDAVVGASLRDQNHKQTVKMLAVVVFAFILCWLPFHVGRYLFSKSFEPGSLEIAQISQYCNLVSFVLFYLSAAINPILYNIMSKKYRVAVFRLLGFEPFSQRKLSTLKDESSRAWTESSINT
modifications: SNAP tag labelled with SNAP-Lumi4-Tb; left off: SNAP, N-terminal, kept
B5: I1784.60A (protein)
chain: MWNATPSEEPGFNLTLADLDWDASPGNDSLGDELLQLFPAPLLAGVTATCVALFVVGIAGNLLTMLVVSRFRELRTTTNLYLSSMAFSDLLIFLCMPLDLVRLWQYRPWNFGDLLCKLFQFVSESCTYATVLTITALSVERYFAICFPLRAKVVVTKGRVKLVIFVIWAVAFCSAGPAFVLVGVEHENGTDPWDTNECRPTEFAVRSGLLTVMVWVSSIFFFLPVFCLTVLYSLIGRKLWRRRRGDAVVGASLRDQNHKQTVKMLAVVVFAFILCWLPFHVGRYLFSKSFEPGSLEIAQISQYCNLVSFVLFYLSAAINPILYNIMSKKYRVAVFRLLGFEPFSQRKLSTLKDESSRAWTESSINT
modifications: SNAP tag labelled with SNAP-Lumi4-Tb; left off: SNAP, N-terminal, kept
B6: L1814.63A (protein)
chain: MWNATPSEEPGFNLTLADLDWDASPGNDSLGDELLQLFPAPLLAGVTATCVALFVVGIAGNLLTMLVVSRFRELRTTTNLYLSSMAFSDLLIFLCMPLDLVRLWQYRPWNFGDLLCKLFQFVSESCTYATVLTITALSVERYFAICFPLRAKVVVTKGRVKLVIFVIWAVAFCSAGPIFVAVGVEHENGTDPWDTNECRPTEFAVRSGLLTVMVWVSSIFFFLPVFCLTVLYSLIGRKLWRRRRGDAVVGASLRDQNHKQTVKMLAVVVFAFILCWLPFHVGRYLFSKSFEPGSLEIAQISQYCNLVSFVLFYLSAAINPILYNIMSKKYRVAVFRLLGFEPFSQRKLSTLKDESSRAWTESSINT
modifications: SNAP tag labelled with SNAP-Lumi4-Tb; left off: SNAP, N-terminal, kept
B7: F38N-termA (protein)
chain: MWNATPSEEPGFNLTLADLDWDASPGNDSLGDELLQLAPAPLLAGVTATCVALFVVGIAGNLLTMLVVSRFRELRTTTNLYLSSMAFSDLLIFLCMPLDLVRLWQYRPWNFGDLLCKLFQFVSESCTYATVLTITALSVERYFAICFPLRAKVVVTKGRVKLVIFVIWAVAFCSAGPIFVLVGVEHENGTDPWDTNECRPTEFAVRSGLLTVMVWVSSIFFFLPVFCLTVLYSLIGRKLWRRRRGDAVVGASLRDQNHKQTVKMLAVVVFAFILCWLPFHVGRYLFSKSFEPGSLEIAQISQYCNLVSFVLFYLSAAINPILYNIMSKKYRVAVFRLLGFEPFSQRKLSTLKDESSRAWTESSINT
modifications: SNAP tag labelled with SNAP-Lumi4-Tb; left off: SNAP, N-terminal, kept
B8: L1032.64A (protein)
chain: MWNATPSEEPGFNLTLADLDWDASPGNDSLGDELLQLFPAPLLAGVTATCVALFVVGIAGNLLTMLVVSRFRELRTTTNLYLSSMAFSDLLIFLCMPLDLVRAWQYRPWNFGDLLCKLFQFVSESCTYATVLTITALSVERYFAICFPLRAKVVVTKGRVKLVIFVIWAVAFCSAGPIFVLVGVEHENGTDPWDTNECRPTEFAVRSGLLTVMVWVSSIFFFLPVFCLTVLYSLIGRKLWRRRRGDAVVGASLRDQNHKQTVKMLAVVVFAFILCWLPFHVGRYLFSKSFEPGSLEIAQISQYCNLVSFVLFYLSAAINPILYNIMSKKYRVAVFRLLGFEPFSQRKLSTLKDESSRAWTESSINT
modifications: SNAP tag labelled with SNAP-Lumi4-Tb; left off: SNAP, N-terminal, kept
B9: L37N-termA (protein)
chain: MWNATPSEEPGFNLTLADLDWDASPGNDSLGDELLQAFPAPLLAGVTATCVALFVVGIAGNLLTMLVVSRFRELRTTTNLYLSSMAFSDLLIFLCMPLDLVRLWQYRPWNFGDLLCKLFQFVSESCTYATVLTITALSVERYFAICFPLRAKVVVTKGRVKLVIFVIWAVAFCSAGPIFVLVGVEHENGTDPWDTNECRPTEFAVRSGLLTVMVWVSSIFFFLPVFCLTVLYSLIGRKLWRRRRGDAVVGASLRDQNHKQTVKMLAVVVFAFILCWLPFHVGRYLFSKSFEPGSLEIAQISQYCNLVSFVLFYLSAAINPILYNIMSKKYRVAVFRLLGFEPFSQRKLSTLKDESSRAWTESSINT
modifications: SNAP tag labelled with SNAP-Lumi4-Tb; left off: SNAP, N-terminal, kept
B10: D992.60A (protein)
chain: MWNATPSEEPGFNLTLADLDWDASPGNDSLGDELLQLFPAPLLAGVTATCVALFVVGIAGNLLTMLVVSRFRELRTTTNLYLSSMAFSDLLIFLCMPLALVRLWQYRPWNFGDLLCKLFQFVSESCTYATVLTITALSVERYFAICFPLRAKVVVTKGRVKLVIFVIWAVAFCSAGPIFVLVGVEHENGTDPWDTNECRPTEFAVRSGLLTVMVWVSSIFFFLPVFCLTVLYSLIGRKLWRRRRGDAVVGASLRDQNHKQTVKMLAVVVFAFILCWLPFHVGRYLFSKSFEPGSLEIAQISQYCNLVSFVLFYLSAAINPILYNIMSKKYRVAVFRLLGFEPFSQRKLSTLKDESSRAWTESSINT
modifications: SNAP tag labelled with SNAP-Lumi4-Tb; left off: SNAP, N-terminal, kept

Test system: ghrelin receptor (WT or mutants)
Experiment: Cell-surface expression assay (FACS)
Type: cell-based, human
Description: Cell-surface expression for each mutant was monitored by a fluorescence-activated cell sorting (FACS) assay. In brief, the expressed cells were incubated with mouse anti-HA-FITC antibody (Sigma) at a dilution of 1:200 for 20 min at 4 °C, and then a 9-fold excess of PBS was added to cells. […] The FACS data were analyzed by BD Accuri C6 software 1.0.264.21. The gating strategy and calculation method of expression are shown in Supplementary Fig. 11.
Supplementary Figure 11 | Gating strategy of cell surface expression assay. Circle a gate P1 in the scatter map (black circle). The cells shown in the histogram map are all the cells in the gate P1 in the scatter map. Fluorescence signal intensity (FITC) is presented by […]. With the Blank sample as the reference value of background fluorescence signal (a), the fluorescence signal histogram map is divided into two regions. The left region represents the negative cell community (FITC-), while the right region represents the positive cell community (FITC+). The expression level of cell surface wild-type (WT) ghrelin receptor (b) can be calculated as follows:
(M(FITC+)-M(FITC-))×(FITC+% Parent). M, mean fluorescence intensity. The expression level of the ghrelin receptor mutant is calculated similarly to WT receptor and then is normalized with the WT to calculate the relative expression value. […]

Molecule	Cell-surface expression (replicate 1) [%]	Cell-surface expression (replicate 2) [%]	Cell-surface expression (replicate 3) [%]	Cell-surface expression (replicate 4) [%]	Cell-surface expression (replicate 5) [%]
B1	98.69	96.95	107.34	98.90	98.13
B2	101.47	87.96	94.26	99.21	100.61
B3	93.73	94.80	89.39	97.54	93.21
B4	101.89	100.72	102.63	110.56	103.22
B5	94.94	100.59	91.58	96.01	89.87
B6	94.17	98.71	96.25	95.38	113.13
B7	92.98	95.22	93.15	94.06	92.77
B8	102.32	103.70	96.41	91.52	101.60
B9	100.75	98.96	98.94	96.06	97.45
B10	101.25	96.41	90.24	92.75	94.78
